The target of test [1] is human C1q (human) (UniProt P02745). Put plainly: C1q ELISA: antibody coated in a dilution series, human C1q at 2 µg/mL, read at 450 nm; column C (midpoint, the C value of paragraph 430) of the printed 4-parameter fit; the axis reads Concentration with no unit, the unit of the coated antibody is from the legend paragraph 61; A 0.06, B 2.093, D 1.573, R^2 0.997. (In an ELISA, binding on a coated surface is turned into a signal by an enzyme label.)

For test [2] the target is unchanged. Put plainly: C1q ELISA: antibody coated in a dilution series, human C1q at 2 µg/mL, read at 450 nm; fit of a flat curve; the unit is from the legend paragraph 61, none on the axis; A 0.06, B 41.873, D 0.09, R^2 0.735.
Test [3] concerns the target human BDCA2 (full-length, cell surface) (human) (UniProt Q8WTT0). Put plainly: FACS dot plot (SSC-H against FL4-H) of the CHO cells with lower BDCA2 expression used in FIG 22B, stained with APC-labelled AC144; gate from about 2x10^1 to 10^4.
Test [4] has the same target. Put plainly: FACS dot plot (SSC-H against FL4-H) of the CHO cells EAG2456 T1F2 Clone 34.16.7 with high BDCA2 expression, stained with APC-labelled AC144; cells spread from about 10^1 to 10^4.

In general, EC50 refers to the concentration needed to bring the measured effect to its halfway point. A higher EC50 goes with lower potency in that assay.

Sequence of human BDCA2 (full-length, cell surface) (human) (Q8WTT0 whole entry): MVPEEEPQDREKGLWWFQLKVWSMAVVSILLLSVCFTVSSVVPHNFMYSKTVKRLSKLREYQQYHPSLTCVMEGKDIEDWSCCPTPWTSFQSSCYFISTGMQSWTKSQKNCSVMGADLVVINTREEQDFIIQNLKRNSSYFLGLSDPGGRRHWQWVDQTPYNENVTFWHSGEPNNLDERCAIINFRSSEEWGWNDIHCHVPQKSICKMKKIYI
Sequence of human C1q (human) (P02745 23-245 limits assumed, chain 1 of 3): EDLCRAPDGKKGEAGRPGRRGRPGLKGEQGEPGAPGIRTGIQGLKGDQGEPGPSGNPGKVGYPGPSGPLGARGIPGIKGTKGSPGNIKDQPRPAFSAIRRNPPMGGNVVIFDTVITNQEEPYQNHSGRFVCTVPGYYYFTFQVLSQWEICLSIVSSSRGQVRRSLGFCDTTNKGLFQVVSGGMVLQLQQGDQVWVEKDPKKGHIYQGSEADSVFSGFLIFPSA
Sequence of human C1q (human) (P02746 28-253 limits assumed, chain 2 of 3, further chain): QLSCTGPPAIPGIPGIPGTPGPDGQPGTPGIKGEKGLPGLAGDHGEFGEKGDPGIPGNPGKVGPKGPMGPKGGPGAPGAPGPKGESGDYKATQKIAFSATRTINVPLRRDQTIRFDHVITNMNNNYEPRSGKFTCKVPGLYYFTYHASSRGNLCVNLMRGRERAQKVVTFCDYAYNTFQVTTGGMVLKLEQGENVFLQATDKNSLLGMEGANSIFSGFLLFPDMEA
Sequence of human C1q (human) (P02747 29-245 limits assumed, chain 3 of 3, further chain): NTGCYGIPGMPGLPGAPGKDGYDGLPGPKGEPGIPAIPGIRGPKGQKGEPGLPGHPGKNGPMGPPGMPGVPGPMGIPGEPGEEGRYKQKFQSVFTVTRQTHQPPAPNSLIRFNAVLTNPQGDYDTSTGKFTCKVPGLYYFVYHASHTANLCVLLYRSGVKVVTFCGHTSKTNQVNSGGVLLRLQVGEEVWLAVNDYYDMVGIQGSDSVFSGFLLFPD
Sequence of 5C8 control (antibody) (heavy): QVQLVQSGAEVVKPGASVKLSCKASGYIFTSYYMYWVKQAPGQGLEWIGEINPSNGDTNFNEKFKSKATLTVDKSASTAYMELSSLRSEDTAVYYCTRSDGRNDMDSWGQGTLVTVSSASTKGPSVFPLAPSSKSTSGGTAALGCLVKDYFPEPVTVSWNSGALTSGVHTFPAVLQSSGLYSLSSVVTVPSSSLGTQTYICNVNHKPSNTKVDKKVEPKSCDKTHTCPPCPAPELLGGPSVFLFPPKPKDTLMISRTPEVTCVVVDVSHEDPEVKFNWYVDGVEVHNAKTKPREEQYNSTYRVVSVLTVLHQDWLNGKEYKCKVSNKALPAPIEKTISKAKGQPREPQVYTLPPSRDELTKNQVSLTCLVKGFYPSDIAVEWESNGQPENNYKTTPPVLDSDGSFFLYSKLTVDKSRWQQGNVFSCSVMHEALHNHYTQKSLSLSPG
Sequence of 5C8 control (antibody) (light): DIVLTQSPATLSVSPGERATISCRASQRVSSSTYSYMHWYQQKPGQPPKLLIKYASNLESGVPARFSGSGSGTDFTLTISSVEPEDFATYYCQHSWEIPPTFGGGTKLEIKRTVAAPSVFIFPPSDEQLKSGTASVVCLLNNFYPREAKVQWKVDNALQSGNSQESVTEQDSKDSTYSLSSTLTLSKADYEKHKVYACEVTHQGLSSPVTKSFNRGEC

Substance 5C8 control (antibody) had an EC50 with human C1q (human) [1] of 2.21 µg/mL.
In the case of 5c8 G4P/G1agly (antibody), in the test with human C1q (human) [2], the C of the 4-parameter fit (midpoint), curve flat was determined as 0.062 µg/mL.
“anti-human BDCA2 AC144 mAb (Miltenyi Biotec) (antibody)” yielded a frequency printed in the gate BDCA2 (percent of cells) in test [3] of 87.8. The substance also registered a frequency printed in the FL4-positive gate (percent of cells) in test [4] of 99.4.

(Values after US20180362652A1.)
